Reference: patent publication US20220348675A1 (I MAB BIOPHARMA US, published 2022)
Numbering of substitutions follows the chain as printed.

Key:
[1] = target: 4-1BB expressed on cells (HEK293-4-1BB, 4-1BB-Jurkat, GloResponse NFκB-luc2/4-1BB Jurkat) (UniProt Q07011); test: Flow cytometry on HEK293-4-1BB cells, PE anti-human IgG, MFI
human 4-1BB-His protein = target: T1, human 4-1BB-His protein (human, UniProt Q07011 24-186); test: ELISA, coated human 4-1BB-His, detection with anti-human IgG-HRP, OD450
T1 construct: not shown: His tag

[2] = target: human 4-1BB-biotin protein (human, UniProt Q07011 24-186, limits assumed); test: Dual antigen capture ELISA: coated CLDN18.2 VLP, antibody titrated, then human 4-1BB-biotin at 1 ug/ml and streptavidin-HRP, OD450
[3] = target: T2, 4-1BB expressed on cells (HEK293-4-1BB, 4-1BB-Jurkat, GloResponse NFκB-luc2/4-1BB Jurkat) (UniProt Q07011 24-255, limits assumed); test: Flow cytometry on HEK293-4-1BB cells, PE anti-human IgG, MFI
T2 construct: whole, on cells; also called HEK293 expressed 4-1BB; HEK293-4-1BB cells
Description: To evaluate the antigen binding property, the anti-CLDN18.2-4-1BB antibodies were analyzed for their binding to HEK293 expressed 4-1BB by FACS. A total number of 1×10⁵ HEK293-4-1BB cells in each well were incubated with serial diluted antibodies for 30 minutes at 4° C. in FACS buffer (2% FBS in PBS). After wash by FACS buffer, PE conjugated-anti-human IgG antibody was added to each well and incubated at 4° C. for 30 minutes. After wash, MFI of PE was evaluated by FACS Caliber.

human 4-1BB-Fc protein = target: T3, human 4-1BB-Fc protein (human, UniProt Q07011 24-186); test: ELISA, coated human 4-1BB-Fc
T3 construct: not shown: Fc part
T3 sequence (Q07011 24-186 limits assumed): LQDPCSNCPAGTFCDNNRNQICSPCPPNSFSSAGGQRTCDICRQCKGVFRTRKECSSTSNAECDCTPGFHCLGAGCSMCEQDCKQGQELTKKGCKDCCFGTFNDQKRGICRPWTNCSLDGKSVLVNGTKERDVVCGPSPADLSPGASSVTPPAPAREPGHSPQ

T1 sequence (Q07011 24-186 limits assumed): as above
T2 sequence (Q07011 24-255 limits assumed): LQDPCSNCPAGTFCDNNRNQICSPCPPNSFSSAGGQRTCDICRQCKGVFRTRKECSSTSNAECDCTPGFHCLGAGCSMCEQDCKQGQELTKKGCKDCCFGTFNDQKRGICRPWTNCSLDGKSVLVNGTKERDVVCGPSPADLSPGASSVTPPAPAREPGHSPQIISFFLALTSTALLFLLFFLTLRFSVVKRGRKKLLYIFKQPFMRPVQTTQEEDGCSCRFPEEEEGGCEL
Chain of 4-1BB expressed on cells (HEK293-4-1BB, 4-1BB-Jurkat, GloResponse NFκB-luc2/4-1BB Jurkat) (UniProt Q07011) (Q07011 24-255 limits assumed): as above
Chain of human 4-1BB-biotin protein (Q07011 24-186 limits assumed): as the sequence (Q07011 24-186 limits assumed) above

urelumab (BMUR) anti-4-1BB monoclonal antibody
EC50 (read off the curve) [1]: 0.06 nM
EC50 (read off the curve) (human 4-1BB-His protein): 0.6 nM

B1: 72C1B6A3 anti-CLDN18.2 monoclonal antibody (antibody, V domains shown)
VH: QVQLVQSGAEVKKPGASVKVSCKASGYTFTTYPIEWVRQAPGQRLEWMGNFHPYNDDTKYNEKFKGRVTITRDTSASTAYMELSSLRSEDTAVYYCARRAYGYPYAMDYWGQGTLVTVSS
VL: DIVMTQSPDSLAVSLGERATINCKSSQSLLNAGNQKNYLTWYQQKPGQPPKLLIYRASSRESGVPDRFSGSGSGTDFTLTISSLQAEDVAVYYCQNDYIYPYTFGGGTKLEIK
notes: also called CLDN18.2 mAb 72C1B6A3
binding result [2]: no binding (tested: 100 nM)

B2: 1A10 anti-4-1BB monoclonal antibody (antibody, V domains shown)
VH: EVQLLESGGGLVQPGGSLRLSCAASGFTFSSYDMSWVRQAPGKGLEWVSWISYSGGSIYYADSVKGRFTISRDNSKNTLYLQMNSLRAEDTAVYYCARDAQRNSMREFDYWGQGTLVTVSS
VL: QSVLTQPPSASGTPGQRVTISCSGSSSNIGNNYVTWYQQLPGTAPKLLIYADSHRPSGVPDRFSGSKSGTSASLAISGLRSEDEADYYCATWDYSLSGYVFGGGTKLTVL
EC50 (read off the curve) [3]: ~0.2 nM
EC50 (read off the curve) (human 4-1BB-His protein): ~0.5 nM

B3: 41B01.02 anti-4-1BB antibody (antibody, V domains shown)
VH: B2 VH with N103Q
VL: B2 VL with Q16R
notes: Full human anti-4-1BB antibody
binding result (human 4-1BB-Fc protein): binds
